For assay [1], the target named is human B7-H3 expressed on the surface of human cancer cell lines (human) (UniProt Q5ZPR3). The assay can be described thus: FACS on HCC1954 cells, 10 ug/ml.
Assay [2] shares this target. Description: FACS on MDA-MB-231 cells, 10 ug/ml.
For assay [3] the target is unchanged. Description: FACS on OVCAR-3 cells, 10 ug/ml.
Assay [4] has the same target. The assay can be described thus: FACS on JeKo-1 cells, 10 ug/ml.
For assay [5] the target is unchanged. Description: FACS on HCT116 cells, 10 ug/ml.
The target is the same in assay [6]. Description: FACS on Panc-1 cells, 10 ug/ml.
For assay [7] the target is unchanged. Description: FACS on A-498 cells, 10 ug/ml.
Assay [8] has the same target. The assay can be described thus: FACS on SKOV-3 cells, 10 ug/ml.
Assay [9] has the same target. Description: FACS on Calu-6 cells, 10 ug/ml.
Assay [10] has the same target. The assay can be described thus: FACS on 786-0 cells, 10 ug/ml.
Assay [11] has the same target. The assay can be described thus: FACS on A2780 cells, 10 ug/ml.
The target is the same in assay [12]. Description: FACS on HT29 cells, 10 ug/ml.
The target is the same in assay [13]. Description: FACS on Hela cells, 10 ug/ml.
The target is the same in assay [14]. The assay can be described thus: FACS on HCC1187 cells, 10 ug/ml.
For assay [15] the target is unchanged. Description: FACS on DLD-1 cells, 10 ug/ml.
The target is the same in assay [16]. Description: FACS on MCF-7 cells, 10 ug/ml.
Assay [17] shares this target. Description: FACS on NCI-N87 cells, 10 ug/ml.
Assay [18] shares this target. Description: FACS on MDA-MB-468 cells, 10 ug/ml.

Sequence of human B7-H3 expressed on the surface of human cancer cell lines (human) (Q5ZPR3 29-534): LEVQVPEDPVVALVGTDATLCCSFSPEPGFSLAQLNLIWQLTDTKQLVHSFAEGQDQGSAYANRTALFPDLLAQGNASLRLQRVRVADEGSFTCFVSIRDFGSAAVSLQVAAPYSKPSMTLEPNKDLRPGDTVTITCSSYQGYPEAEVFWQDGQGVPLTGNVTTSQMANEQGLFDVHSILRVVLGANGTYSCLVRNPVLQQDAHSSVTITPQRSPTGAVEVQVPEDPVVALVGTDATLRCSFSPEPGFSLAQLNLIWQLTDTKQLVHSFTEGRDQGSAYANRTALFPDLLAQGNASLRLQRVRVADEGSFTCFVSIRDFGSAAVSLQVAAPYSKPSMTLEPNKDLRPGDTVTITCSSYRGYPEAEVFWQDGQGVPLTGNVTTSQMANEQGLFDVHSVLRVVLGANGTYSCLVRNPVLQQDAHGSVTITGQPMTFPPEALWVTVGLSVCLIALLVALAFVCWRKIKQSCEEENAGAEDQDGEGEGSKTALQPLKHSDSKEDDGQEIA

B1: 84D (comparison anti-B7-H3 antibody, Enoblituzumab variable regions) (antibody, part only; not given: constant regions, V domains shown, not shown: another chain or arm of the molecule)
VH: EVQLVESGGGLVQPGGSLRLSCAASGFTFSSFGMHWVRQAPGKGLEWVAYISSDSSAIYYADTVKGRFTISRDNAKNSLYLQMNSLRDEDTAVYYCGRGRENIYYGSRLDYWGQGTTVTVSS
VL: DIQLTQSPSFLSASVGDRVTITCKASQNVDTNVAWYQQKPGKAPKALIYSASYRYSGVPSRFSGSGSGTDFTLTISSLQPEDFATYYCQQYNNYPFTFGQGTKLEIK
As for B1, the MFI Ratio in [1] turned out to be 14; in assay [2] it was 5.4; in assay [3] it was 13.7; in assay [4], 2.9; in assay [5], 5.9; in assay [6], 9. The MFI Ratio in assay [7] was 24; in [8], 11.9; in [9], 23.2; in assay [10] it was 20; in assay [11], 13.1; in [12], 8.9. The MFI Ratio in assay [13] is 23.5; in assay [14], 14.9; in assay [15], 10.7; in assay [16], 78; in assay [17] it was 12.8; in assay [18] it was 8.6.
